Test results as given in PMC7739888, “Induction of the cydAB Operon Encoding the bd Quinol Oxidase Under Respiration-Inhibitory Conditions by the Major cAMP Receptor Protein MSMEG_6189 in Mycobacterium smegmatis”.

Biological target: T1, Crp1 (MSMEG_6189), C-terminal His6 (UniProt A0R5H1 1-224)
T1 sequence: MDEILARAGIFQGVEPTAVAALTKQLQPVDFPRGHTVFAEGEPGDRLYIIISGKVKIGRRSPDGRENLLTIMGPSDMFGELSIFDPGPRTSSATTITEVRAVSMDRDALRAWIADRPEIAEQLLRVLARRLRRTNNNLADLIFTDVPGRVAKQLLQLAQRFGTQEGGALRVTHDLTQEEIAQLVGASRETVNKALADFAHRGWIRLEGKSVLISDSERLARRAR
Experiment: EMSA; 200 uM cAMP; binding virtually abolished; EMSA: 20 mM Tris-HCl pH 8.0, 100 mM NaCl, 2.5 mM MgCl2, 1 mM EDTA, 1 mM DTT, 50 ug/ml BSA, 10% glycerol, 25 C 20 min; footprinting: 20 mM Tris-HCl pH 8.0, 0.2 mM MgCl2, 2.1 mM KCl, 0.04 mM DTT, 11.1% glycerol, 25 C, 0.15-0.6 uM Crp1
Conditions: protein: recombinant; tags: C-terminal His6; chain copies: 2; label: none (SYBR Green stain); blunt

B1: M3 (CBS1+CBS2 mutant) 99-bp (dsDNA)
DNA 1: GCAGCGGGGTCAGGAAGCTCGGCGCCGCCTTCCCGACCGGCTTTTCATCGGCGCCTCCCCCCAGCTAACCTTTCGCGCTACCTGCGTCGATCTCCTGGC
DNA 2: GCCAGGAGATCGACGCAGGTAGCGCGAAAGGTTAGCTGGGGGGAGGCGCCGATGAAAAGCCGGTCGGGAAGGCGGCGCCGAGCTTCCTGACCCCGCTGC
binding result: no binding
